Reference: patent publication US20130115166A1 (CEPHALON AUSTRALIA, published 2013)
Changes are numbered by the printed parent chain.

B1: E11E7Chimera (antibody, human IgG1, kappa, V domains shown)
VH: QVQLKESGPGLVQPSQTLSLTCTVSGFSLISYNVHWVRQPRGKGLEWMGVIWTGGSTDYNSVLKSRLSISRDTSKSQVFLKMHSLQTEDIGTYYCARDKYGLFPGYFDYWGQGVMVTVSS
VL: DIVMTQSPFSLAVSEGEMVTINCKPSQSLLSSGNRKNYLAWYQQKPGQSPKLLIYYASTRQSGVPDRFIGSGSGTDFTLTISDVQAEDLADYYCLQHFNYPWTFGGGTKLELKR
notes: Rat E11E7 variable regions on human constant regions; also called E11E7 chimeric antibody
B2: 21-4 (antibody, human IgG1, kappa, V domains shown)
VH: EVQLQQWGAGLLKPSETLSLTCAVYGFSLISYNVHWIRQPPGKGLEWIGVIWTGGSTDYNSVLKSRVTISRDTSKNQFSLKLSSVTAADTAVYYCARDKYGLFPGYFDYWGQGTLVTVSS
VL: EIVLTQSPATLSLSPGERATLSCKPSQSLLSSGNRKNYLAWYQQKPGQAPRLLIYYASTRQSGIPDRFSGSGSGTDFTLTISRLEPEDFAVYYCLQHFNYPWTFGGGTKVEIKR
notes: Humanized form of E11E7; also called humanized antibody 21-4
B3: 1-4 (antibody, human IgG1, kappa, V domains shown)
VH: B2 VH with F27G, L29F, I30S
VL: B2 VL
notes: Humanized form of E11E7; also called humanized antibody 1-4
B4: 16-12 (antibody, human IgG1, kappa, V domains shown)
VH: QVQLQESGPGLVKPSQTLSLTCTVSGFSLISYNVHWIRQPPGKGLEWIGVIWTGGSTDYNSVLKSRVTMSRDTSKNQFSLKVNSVTAADTAVYYCARDKYGLFPGYFDYWGQGTLVTVSS
VL: B2 VL with L4M, D66A, R83S, V110A
notes: Humanized form of E11E7; also called humanized antibody 16-12
B5: 15-12 (antibody, human IgG1, kappa, V domains shown)
VH: B4 VH with F27G, L29I, I30S, R71V
VL: B2 VL with L4M, D66A, R83S, V110A
notes: Humanized form of E11E7; also called humanized antibody 15-12
B6: 18-4 (antibody, human IgG1, kappa, V domains shown)
VH: B2 VH with F27G, L29F, I30S, R71V
VL: B2 VL
notes: Humanized form of E11E7; also called humanized antibody 18-4
B7: 13-12 (antibody, human IgG1, kappa, V domains shown)
VH: B4 VH with R71V
VL: B2 VL with L4M, D66A, R83S, V110A
notes: Humanized form of E11E7; also called humanized antibody 13-12
B8: 14-12 (antibody, human IgG1, kappa, V domains shown)
VH: B4 VH with F27G, L29I, I30S
VL: B2 VL with L4M, D66A, R83S, V110A
notes: Humanized form of E11E7; also called humanized antibody 14-12
B9: 11-23 (antibody, human IgG1, kappa, V domains shown)
VH: B4 VH with Q16E, F27G, L29I, I30S, S61P, V62S, M69I, V82L, N83S
VL: DIVMTQTPLSLPVTPGEPASISCKPSQSLLSSGNRKNYLAWYLQKPGQSPQLLIYYASTRQSGVPDRFSGSGSGTDFTLKISRVEAEDVGVYYCLQHFNYPWTFGQGTKLEIKR
notes: Humanized form of E11E7; also called humanized antibody 11-23
B10: 11-22 (antibody, human IgG1, kappa, V domains shown)
VH: B4 VH with Q16E, F27G, L29I, I30S, S61P, V62S, M69I, V82L, N83S
VL: DIVMTQSPDSLAVSLGERATINCKPSQSLLSSGNRKNYLAWYQQKPGQPPKLLIYYASTRQSGVPDRFSGSGSGTDFTLTISSLQAEDVAVYYCLQHFNYPWTFGQGTKLEIKR
notes: Humanized form of E11E7; also called humanized antibody 11-22
B11: 10-23 (antibody, human IgG1, kappa, V domains shown)
VH: B4 VH with Q16E, F27G, L29I, I30S, S61P, V62S, M69I, R71V, V82L, N83S
VL: B9 VL
notes: Humanized form of E11E7; also called humanized antibody 10-23
B12: 10-22 (antibody, human IgG1, kappa, V domains shown)
VH: B4 VH with Q16E, F27G, L29I, I30S, S61P, V62S, M69I, R71V, V82L, N83S
VL: B10 VL
notes: Humanized form of E11E7; also called humanized antibody 10-22
B13: 9-23 (antibody, human IgG1, kappa, V domains shown)
VH: B4 VH with Q16E, S61P, V62S, M69I, R71V, V82L, N83S
VL: B9 VL
notes: Humanized form of E11E7; also called humanized antibody 9-23
B14: 7-23 (antibody, human IgG1, kappa, V domains shown)
VH: B4 VH with Q16E, F27G, I30S, S61P, V62S, M69I, V82L, N83S
VL: B9 VL
notes: Humanized form of E11E7; also called humanized antibody 7-23
B15: 5-22 (antibody, human IgG1, kappa, V domains shown)
VH: B4 VH with Q16E, F27G, L29I, S61P, V62S, M69I, V82L, N83S
VL: B10 VL
notes: Humanized form of E11E7; also called humanized antibody 5-22
B16: 5-23 (antibody, human IgG1, kappa, V domains shown)
VH: B4 VH with Q16E, F27G, L29I, S61P, V62S, M69I, V82L, N83S
VL: B9 VL
notes: Humanized form of E11E7; also called humanized antibody 5-23
B17: 6-23 (antibody, human IgG1, kappa, V domains shown)
VH: B4 VH with Q16E, L29I, I30S, S61P, V62S, M69I, V82L, N83S
VL: B9 VL
notes: Humanized form of E11E7; also called humanized antibody 6-23
B18: 9-22 (antibody, human IgG1, kappa, V domains shown)
VH: B4 VH with Q16E, S61P, V62S, M69I, R71V, V82L, N83S
VL: B10 VL
notes: Humanized form of E11E7; also called humanized antibody 9-22
B19: 8-23 (antibody, human IgG1, kappa, V domains shown)
VH: B4 VH with Q16E, S61P, V62S, M69I, V82L, N83S
VL: B9 VL
notes: Humanized form of E11E7; also called humanized antibody 8-23
B20: 7-22 (antibody, human IgG1, kappa, V domains shown)
VH: B4 VH with Q16E, F27G, I30S, S61P, V62S, M69I, V82L, N83S
VL: B10 VL
notes: Humanized form of E11E7; also called humanized antibody 7-22

What follows are binders tested against T1, IL-23Fc (human, UniProt Q9NPF7 20-189) (assay: ELISA, coated human IL-23 (IL-23Fc), biotinylated antibody, streptavidin-HRP, mOD at 450 nm [panel A]).
T1 construct: Produced in HEK293E
Procedure: A NuncMaxisorp 96-well plate was coated with human IL-23 diluted to […] in carbonate coating buffer and overnight incubation at 4° C. The plate was washed (three times in 1×PBS-Tween20 (0.05%)) then blocked for an hour with 1% BSA in PBS at room temperature. Biotinylated antibody was prepared starting from 10 μg/ml and serial half log dilutions were performed then 100 μl was added to the plate and incubated for an hour. The plate was washed and Streptavidin-HRP at 1:2000 dilution was added to all wells and further incubated for an hour. The plate was washed and subsequently developed using TMB (Sigma). The color development reaction was stopped by addition of an equal volume of 1M HCl. Absorbance of the resulting reaction was determined using a plate-based spectrophotometer.

| Binder | EC50 (read off the curve) [µg/mL] |
| --- | --- |
| B1 | ~0.09 |

These binders were tested against T2, Human IL-23 (human, UniProt P29460 23-328; Q9NPF7 20-189) (assay: SPR (Biacore 3000), antibody captured on Protein A, IL-23 as analyte, 1:1 Langmuir fit).
T2 construct: Heterodimer of IL-12p40 covalently linked to IL-23p19, purchased (Ebiosciences or RnD Systems); also called hIL-23; rhIL23
T2 sequence 1: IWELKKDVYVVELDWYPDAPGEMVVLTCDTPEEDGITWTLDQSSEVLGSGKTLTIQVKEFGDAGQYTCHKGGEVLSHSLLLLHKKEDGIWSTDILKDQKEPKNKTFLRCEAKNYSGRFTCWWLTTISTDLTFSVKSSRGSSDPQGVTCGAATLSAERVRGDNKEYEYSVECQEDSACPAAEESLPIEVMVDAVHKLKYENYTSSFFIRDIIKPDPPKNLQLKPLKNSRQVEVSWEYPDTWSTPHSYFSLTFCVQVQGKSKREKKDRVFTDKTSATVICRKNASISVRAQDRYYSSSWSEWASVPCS
T2 sequence 2: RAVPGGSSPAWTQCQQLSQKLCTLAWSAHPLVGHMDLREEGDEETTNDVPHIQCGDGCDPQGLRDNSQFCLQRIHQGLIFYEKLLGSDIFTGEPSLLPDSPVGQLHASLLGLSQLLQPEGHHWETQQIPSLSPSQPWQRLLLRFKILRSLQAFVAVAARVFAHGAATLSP
Procedure: (§1) Using a Biacore 3000, Protein A (Pierce) was immobilized on a CM5 chip using amine coupling chemistry to give 3000 Response Units (RU). Antibody was captured on the surface of the chip in flow cell 2 or 4 with a control surface in flow cell 1 or 3. Human IL-23 was then passed over both flow cells and the response units measured. The surface was then regenerated with 10 mM glycine pH 2.5. For a kinetic run this process was repeated with 5 dilutions of IL-23. Data was double referenced using an injection of running buffer before being fitted using a 1:1 Langmuir equation to determine ka, kd and KD.

| Binder | Kd [nM] | koff [s⁻¹] | kon [M⁻¹ s⁻¹] |
| --- | --- | --- | --- |
| B2 | 0.388 | 0.000202 | 521000 |
| B3 | 2.11 | 0.000733 | 348000 |
| B1 |  |  | 542000 |

These binders were tested against T3, IL-12p40Fc (human) (assay: ELISA, coated human IL-12p40-Fc, biotinylated antibody, streptavidin-HRP, mOD at 450 nm [panel C]).
T3 construct: also called human p40-Fc; human IL-12p40-Fc fusion protein

| Binder | binding result |
| --- | --- |
| B1 | no binding (tested: 10 ug/ml) |

The binders below were run against T2, Human IL-23 (assay: competition ELISA: biotinylated hIL-23 (100 ng/ml) pre-incubated with antibody, binding to coated hIL23R-HIS detected with streptavidin-HRP; blocked partner IL-23R).

| Binder | IC50 (read off the curve) [µg/mL] |
| --- | --- |
| B1 | ~0.04 |

Each binder was assayed against T4, IL-23 (HEK293E-derived) (human, UniProt P29460 23-328; Q9NPF7 20-189) (assay: SPR (Biacore), antibody supernatant captured on Protein A, IL-23 at 5 ug/ml as analyte).
T4 sequence 1: T2 sequence 1
T4 sequence 2: T2 sequence 2
Procedure: As a result of the humanization processes 22 humanized antibodies were produced and tested for their ability to bind human IL-23 (Table 4). Briefly, 2 mL transfections of the 22 humanized antibodies were screened for antibody expression level and binding activity via SPR. Protein A was immobilized onto FC1 and FC2 (or alternatively FC3 and FC4) of a CM5 research grade sensor chip using amine coupling, giving approximately 3000 RU. FC1 was used as a blank throughout the experiments. The experiments were run in HBS-P buffer (SPR). Antibody-containing cell culture supernatants were diluted in 10× HBS-P buffer at a ratio of 9:1. The diluted antibody was injected over FC2 at a flow rate of 20 μl/min. IL-23 (HEK293E-derived) was passed over the surface of FC1 and FC2 at a concentrations of 5 μg/ml as a kinetic injection with 5 min dissociation time across both
FC. Regeneration of the surface was performed using 10 mM Glycine, pH 1.5. The sensorgram data from FC2 were subtracted from FC1 and a buffer only control. […] The Sequence IDs of the variable heavy and light chains for each antibody are given in the Table 4 along with kd (off-rates) of selected tested antibodies.

| Binder | koff [s⁻¹] |
| --- | --- |
| B2 | 0.000191 |
| B4 | 0.000224 |
| B5 | 0.006 |
| B6 | 0.00133 |
| B7 | 0.000855 |
| B8 | 0.00349 |
| B3 | 0.000616 |
| B1 | 5.98e-05 |
| B9 | 0.00462 |
| B10 | 0.00121 |
| B11 | 0.013 |
| B12 | 0.00313 |
| B13 | 0.00056 |
| B14 | 0.00391 |
| B15 | 0.00198 |
| B16 | 0.00639 |
| B17 | 0.000566 |
| B18 | 0.000198 |
| B19 | 0.000285 |
| B20 | 0.00102 |

Each binder was assayed against T2, Human IL-23 (assay: SPR (Biacore 3000), antibody captured on Protein A, IL-23 as analyte, 1:1 Langmuir fit; below the limit of sensitivity).
Procedure: as §1

| Binder | Kd [nM] | koff [s⁻¹] |
| --- | --- | --- |
| B1 | < 0.1 | < 1e-05 |
